# From patent publication US12514853B2, “Therapeutic dendrimer” (Starpharma Pty Ltd, priority 2018, dated 2026)
# Values joined by “and” are separate entries in the source; they are usually repeats but may differ in a detail not shown here. Equal entries are not always repeated. Where two headings read alike, the source gives them in different places.
# Tests used:
# [1] = patients to which irinotecan is administered; cited from earlier work
# [2] = system: HT-29 (human colon carcinoma cell line) xenograft; test: Efficacy alone or in combination with olaparib in HT-29 xenograft model in mice; assay type: in vivo, Balb/c nude mice; settings: for Percent TGI: day 28; for effect on HT-29 tumour growth (in words): olaparib 50 mg/kg orally, irinotecan 80 mg/kg IV, their combination, 2f 5 and 8 mg/kg IV
# Procedure: Olaparib solid powder obtained from MedChemExpress was solubilised in DMSO and an oral formulation was prepared at a final concentration of 5 mg/ml in 10% DMSO: 15% (2-Hydroxypropyl)-β-cyclodextrin in sterile water.
# The endpoint for the analysis was a tumour volume of 1200 mm^3.
# Statistical analysis of tumour growth was performed on day 28 when the first study animals reached endpoint criteria for tumour burden.
# [3] = system: MDA-MB-231 (human breast carcinoma cell line) xenograft; test: Efficacy in MDA-MB-231 xenograft model in mice; assay type: in vivo, Balb/c nude mice; settings: irinotecan 90 mg/kg, 2f 15, 2h 25 mg/kg IV once weekly for three weeks
# [4] = system: HT-29 (human colon carcinoma cell line) xenograft; test: Efficacy in HT-29 xenograft model in mice; assay type: in vivo, Balb/c nude mice; settings: for Tumour growth inhibited: day 36, vs vehicle, irinotecan 90 mg/kg, 2f 15, 2i 15, 2h 25 mg/kg IV; for effect on HT-29 tumour growth: 2f 15, 2i 15, 2h 25 mg/kg SN-38 equivalents IV once weekly
# [5] = system: SW620 (human colon carcinoma cell line) xenograft; test: Efficacy in SW620 xenograft model in mice; settings: for effect on SW620 tumour growth / tolerability: irinotecan 90 mg/kg; for effect on SW620 tumour growth: 2f 15, 2i 15, 2h 25, 2a 25 mg/kg IV days 1, 8, 15, study to day 119; for tolerability: 2f 15, 2i 15, 2h 25, 2a 25 mg/kg IV once weekly for three weeks
# [6] = for tolerability: 2f 15 mg/kg, 2i 15 mg/kg, 2h 25 mg/kg, 2a 30 mg/kg SN-38 equivalents, IV once weekly for three weeks
# [7] = system: HT-29 cells (human colon cancer cell line); test: In-vitro anti-cancer drug screening, cell counting (SRB) assay; assay type: cell-based; settings: concentration required to inhibit net cell growth by 50%
# Procedure: A study was carried out to determine the ability of example dendrimers to inhibit growth of HT-29 cells (human colon cancer cell line) using a cell counting (SRB) assay.
# [8] = plasma release study (SN-38 release in rat plasma); assay type: in vitro ADME; settings: 37° C.
# [9] = SN-38 release from dendrimers in 9:1 PBS/DMA at 37° C. and pH 7.4; assay type: physicochemical; settings: SN-38 released, pH 7.4, 1 mg/mL dendrimer
# Procedure: A study was carried out to determine the rate of SN-38 release from certain dendrimeric compounds in 9:1 PBS (phosphate-buffered saline): DMA at 37° C. and pH 7.4.
# The PBS release study was conducted by preparing 1 mg/mL solutions of dendrimer in 9:1 v/v (PBS/DMA) immediately prior to incubation at 37° C. Samples were analysed at 6 h and 18 h and other timepoints by HPLC, comparing the % peak area of SN-38 to the % peak area of dendrimer construct. HPLC (C8 Xbridge, 3×100 mm), gradient: 5% ACN/H2O (0-1 min), 5-80% ACN (1-7 min), 80% ACN (7-12 min), 80-5% ACN (12-13 min), 5% ACN (13-15 min), 243 nm, 10 mM ammonium formate buffer, 0.4 mL/min.
# [10] = system: HT-29 (human colon carcinoma cell line) xenograft; test: Efficacy alone or in combination with cetuximab in HT-29 xenograft model in mice
# [11] = Single dose pharmacokinetic study in rats; settings: rat, single slow bolus IV
# [12] = system: CAPAN-1 (pancreatic cancer cell line) xenograft; test: Efficacy in CAPAN-1 xenograft model in mice; assay type: in vivo
# [13] = olaparib 50 mg/kg orally 5 days on/2 days off for 3 weeks, irinotecan 80 mg/kg IV days 1, 8, 15
# [14] = high dose 2f (approx. 16.5 mg/kg SN-38 equivalents)
# [15] = low dose 2f (approx. 1.3 mg/kg SN-38 equivalents)
# [16] = medium dose 2f (approx. 7.5 mg/kg SN-38 equiv)
# [17] = 15 mg/kg SN-38 equivalents IV once weekly for 3 weeks
# [18] = 20 mg/kg SN-38 equivalents IV once weekly for 3 weeks
# [19] = 30 mg/kg SN-38 equivalents IV once weekly for 3 weeks
compound,measurement,setting,value
"CCc1c2c(nc3ccc(OC(=O)N4CCC(N5CCCCC5)CC4)cc13)-c1cc3c(c(=O)n1C2)COC(=O)[C@]3(O)CC [Irinotecan, reference compound]","patients with early symptoms of gastrointestinal toxicity (diarrhea, emesis, diaphoresis, abdominal cramping)",[1],up to 80%
same,Percent TGI,[2]; [13],33%
same,effect on HT-29 tumour growth (in words),[2],moderate effect on tumour growth
same,effect on MDA-MB-231 tumour growth,[3],continued to grow during drug treatment
same,Tumour growth inhibited,[4],23%
same,effect on SW620 tumour growth,[5],"delay of tumour growth with the exception of one tumour, which completely regressed after day 25"
same,signs of toxicity,[6]; 100 mg/kg irinotecan,pale extremities and lethargy
same,GI50,[7]; Homo sapiens,7000 nM
"O=C(c1cc(Cc2n[nH]c(=O)c3ccccc23)ccc1F)N1CCN(C(=O)C2CC2)CC1 [Olaparib, reference compound]",Percent TGI,[2]; [13],0%
same,effect on HT-29 tumour growth (in words),[2],no effect on tumour growth
"CCc1c2c(nc3ccc(O)cc13)-c1cc3c(c(=O)n1C2)COC(=O)[C@]3(O)CC [SN-38, reference compound]",GI50,[7]; Homo sapiens,< 10 nM
BHALys[Lys]32[α-DGA-C10-SN-38]32†[ε-PEG˜2300]32‡ [Dendrimer 2e],% SN-38 released,[8]; 0.5 h,30.58%
same,% SN-38 released,[8]; 2 h,57.54%
same,% SN-38 released,[8]; 4 h,67.96%
same,% SN-38 released,[8]; 6 h,75.16%
same,% SN-38 released,[8]; 22 h,95.38%
same,% Release at 6 h in 9:1 PBS/DMA at 37° C.,[9],64%
same,% Release at 18 h in 9:1 PBS/DMA at 37° C.,[9],71%
same,GI50,[7],< 10 nM
BHALys[Lys]32[α-DGA-C20-Irinotecan]32†[ε-PEG˜2300]32‡ [Dendrimer 2j],GI50,[7],12000 nM
BHALys[Lys]32[α-DGA-C20-SN-38]32†[ε-PEG˜2100]32‡ [Dendrimer 2f],% SN-38 released,[8]; 0.5 h,5.06%
same,% SN-38 released,[8]; 2 h,24.56%
same,% SN-38 released,[8]; 4 h,45.36%
same,% SN-38 released,[8]; 6 h,61.81%
same,% SN-38 released,[8]; 22 h,95.61%
same,% Release at 6 h in 9:1 PBS/DMA at 37° C.,[9],24%
same,% Release at 18 h in 9:1 PBS/DMA at 37° C.,[9],55%
same,survival versus cetuximab,[10]; 2f 10 and 5 mg/kg vs cetuximab 25 mg/kg,prolonged survival versus cetuximab
same,survival versus irinotecan,"[10]; 2f 10 and 5 mg/kg vs irinotecan 35 mg/kg, P<0.0001",significantly prolonged survival versus irinotecan
same,tumour growth and tumour regression versus irinotecan,"[2]; 2f 5 and 8 mg/kg vs irinotecan 80 mg/kg, P <0.0001",significantly inhibited tumour growth and prolonged tumour regression versus irinotecan
same,tumour regression versus olaparib,[2]; 2f 5 and 8 mg/kg vs olaparib 50 mg/kg,prolonged tumour regression versus olaparib
same,Percent TGI,"[2]; 5 mg/kg 2f IV days 1, 8, 15, alone or with olaparib 50 mg/kg orally",62%
same,Percent TGI,"[2]; 8 mg/kg 2f IV days 1, 8, 16, alone or with olaparib 50 mg/kg orally",94% and 97%
same,effect on HT-29 tumour growth (in words),[2],clear dose dependent repose with statistically significant inhibition of tumour growth
same,effect on MDA-MB-231 tumour growth,[3],induce MDA-MB-231 tumour regression
same,effect on HT-29 tumour growth,[4],induce transient regression of HT-29 tumours
same,Tumour growth inhibited,[4],108%
same,effect on SW620 tumour growth,[5],induce regression of SW620 tumours
same,tolerability,[5],well tolerated
same,"AUC0-∞, free SN-38",[11]; [14],"6,677 ng · hr/mL"
same,"Cmax, free SN-38",[11]; [14],289 ng/mL
same,"Cmax, total SN-38",[11]; [14],"306,500 ng/mL"
same,Free SN-38 at 120 hours,[11]; [14],10.8 ng/mL
same,Total SN-38 at 120 hours,[11]; [14],792.5 ng/mL
same,"AUC0-∞, free SN-38",[11]; [15],"1,196 ng · hr/mL"
same,"Cmax, free SN-38",[11]; [15],93 ng/mL
same,"Cmax, total SN-38",[11]; [15],"32,767 ng/mL"
same,Free SN-38 at 120 hours,[11]; [15],0.8 ng/mL
same,Total SN-38 at 120 hours,[11]; [15],111.5 ng/mL
same,"AUC0-∞, free SN-38",[11]; [16],"3,179 ng · hr/mL"
same,"Cmax, free SN-38",[11]; [16],164 ng/mL
same,"Cmax, total SN-38",[11]; [16],"150,334 ng/mL"
same,Free SN-38 at 120 hours,[11]; [16],3.7 ng/mL
same,Total SN-38 at 120 hours,[11]; [16],498 ng/mL
same,effect on CAPAN-1 tumour growth,[12]; administered intraperitoneally once weekly for three weeks,induces CAPAN-1 tumour regression
same,effect on CAPAN-1 tumour growth,[12]; administered intravenously once weekly for three weeks,induces CAPAN-1 tumour regression
same,Max. body weight loss (%),[6]; [17],4%
same,Max. body weight loss (%),[6]; [18],10%
same,Max. body weight loss (%),[6]; [19],22%
same,tolerability,[6],well tolerated
same,GI50,[7],50 nM and 40 nM
BHALys[Lys]32[α-Glu-C10-SN-38]32†[ε-PEG˜2300]32‡ [Dendrimer 2a],% SN-38 released,[8]; 0.5 h,1.59%
same,% SN-38 released,[8]; 2 h,4.47%
same,% SN-38 released,[8]; 4 h,7.57%
same,% SN-38 released,[8]; 6 h,11.28%
same,% SN-38 released,[8]; 22 h,42.46%
same,% Release at 6 h in 9:1 PBS/DMA at 37° C.,[9],9%
same,% Release at 18 h in 9:1 PBS/DMA at 37° C.,[9],38%
same,animals euthanized due to weight loss,"[5]; 2a 25 mg/kg IV days 1, 8, 15, group of 6",One animal from the 2a group was euthanized during the study due to weight loss on Day 99
same,effect on SW620 tumour growth,[5],induce regression of SW620 tumours
same,tolerability,[5],well tolerated
same,Max. body weight loss (%),[6]; 10 mg/kg SN-38 equivalents IV once weekly for 3 weeks,0%
same,Max. body weight loss (%),[6]; [19],10%
same,tolerability,[6],well tolerated
same,GI50,[7],130 nM
BHALys[Lys]32[α-Glu-C20-SN-38]32†[ε-PEG˜2300]32‡ [Dendrimer 2b],% SN-38 released,[8]; 0.5 h,0.93%
same,% SN-38 released,[8]; 2 h,1.27%
same,% SN-38 released,[8]; 4 h,1.94%
same,% SN-38 released,[8]; 6 h,2.73%
same,% SN-38 released,[8]; 22 h,12.17%
same,% Release at 6 h in 9:1 PBS/DMA at 37° C.,[9],0%
same,% Release at 18 h in 9:1 PBS/DMA at 37° C.,[9],3%
BHALys[Lys]32[α-TDA-C10-SN-38]32†[ε-PEG˜2100]32‡ [Dendrimer 2c],% SN-38 released,[8]; 0.5 h,20.52%
same,% SN-38 released,[8]; 2 h,38.32%
same,% SN-38 released,[8]; 4 h,48.79%
same,% SN-38 released,[8]; 6 h,53.42%
same,% SN-38 released,[8]; 22 h,69.8%
same,% Release at 6 h in 9:1 PBS/DMA at 37° C.,[9],54%
same,% Release at 18 h in 9:1 PBS/DMA at 37° C.,[9],55%
same,GI50,[7],30 nM
BHALys[Lys]32[α-TDA-C20-Irinotecan]32†[ε-PEG˜2100]32‡ [Dendrimer 2k],GI50,[7],46000 nM
BHALys[Lys]32[α-TDA-C20-SN-38]32†[ε-PEG˜2300]32‡ [Dendrimer 2d],% SN-38 released,[8]; 0.5 h,1.87%
same,% SN-38 released,[8]; 2 h,5.47%
same,% SN-38 released,[8]; 4 h,9.50%
same,% SN-38 released,[8]; 6 h,14.92%
same,% SN-38 released,[8]; 22 h,46.69%
same,% Release at 6 h in 9:1 PBS/DMA at 37° C.,[9],5%
same,% Release at 18 h in 9:1 PBS/DMA at 37° C.,[9],13%
same,GI50,[7],140 nM
BHALys[Lys]32[α-THF-C20-SN-38]32†[ε-PEG˜2300]32‡ [Dendrimer 2i],% Release at 6 h in 9:1 PBS/DMA at 37° C.,[9],40%
same,% Release at 18 h in 9:1 PBS/DMA at 37° C.,[9],60%
same,effect on HT-29 tumour growth,[4],induce transient regression of HT-29 tumours
same,Tumour growth inhibited,[4],103%
same,effect on SW620 tumour growth,[5],induce regression of SW620 tumours
same,tolerability,[5],well tolerated
same,Max. body weight loss (%),[6]; [17],8%
same,Max. body weight loss (%),[6]; [18],15%
same,Max. body weight loss (%),[6]; [19],15%
same,tolerability,[6],well tolerated
